Test results from US20130116182A1, “Factor VIII B Cell Epitope Variants Having Reduced Immunogenicity” (priority 2009, published 2013).
“Also recorded” adds a separate entry of the source. Each block holds one molecule with its values, some of them ahead of it.

Legend:
[1] = test system: CD4+ T cells; assay: Staining with peptide-loaded DR0101 tetramers (tetramer guided epitope mapping); format: cell-based, human; settings: for Positive (individual peptide loaded tetramer staining): DR0101 tetramers, severe HA inhibitor subject 56A, day 18
Source text: T-cell clones were obtained from blood samples from both brothers by staining CD4+ cells with fluorescent DR0101 tetramers that were loaded with peptide FVIII2194-2213, followed by single-cell sorting and expansion. Clones were expanded by stimulation with irradiated peripheral blood mononuclear cells (PBMCs) from an HLA-mismatched individual plus phytohemagglutinin (Remel, Lenexa, Kans.) in the presence of human IL-2 (Hemagen Diagnostics, Inc., Columbia, Md.). Clonality was confirmed by tetramer staining, multiplex PCR and sequencing of the VDJ region in the PCR products.
(§1) a. Added 1.5 μl PE-labeled tetramers (final concentration 10 μg/ml. b. Mixed by shaking the rack containing the FACS tubes. c. Incubated the cells with tetramer for 1 hr in the 37 C 5% CO2 incubator.
(§2) a. Incubated tubes in the refrigerator for >5 min. b. Made an antibody cocktail consisting of 3.75 μl anti-CD4-APC, 3.75 μl anti-CD3-PerCP, 3.75 μl anti-CD25-FITC per sample. 3.75 ul×50=187.5 ul. c. Added 3.75 μl control antibodies to 75 μl control cells (1 —unstained; 2—anti-CD4-FITC; 3—anti-CD4-PE; 4—anti-CD3-PerCP; 5—anti-CD4-APC). d. Added 11.25 μl antibody cocktail to each sample. e. Incubated all samples at 4 C (put in the refrigerator) for 20 min in the dark.
(§3) a. Added 2 ml cold FACS wash buffer to each tube. b. Centrifuged at 1200 rpm, 10 min, 4 C, low brake in the Beckman Coulter Allegra 6KR centrifuge. c. Decanted the supernatant. d. Resuspended in 200 μl FACS wash buffer. e. Stored tubes in a covered ice container for FACS analysis.
(§4) a. Added 1.5 μl PE-labeled tetramers (final concentration 10 μg/ml). b. Mixed by shaking the rack containing the FACS tubes. c. Incubated the cells with tetramer for 1 hr in the 37 C 5% CO2 incubator.
as §2, with “ul×55=206.25 ul (For the CD25-FITC Ab, I opened a new vial (Lot #E016414)—taking 100 ul from this lot.)” for “ul×50=187.5 ul.”
(§5) a. Added 2 ml cold FACS wash buffer to each tube. b. Centrifuged at 1200 rpm, 10 min, 4 C, low brake in the Beckman Coulter Allegra 6KR centrifuge. c. Decanted the supernatant. d. Resuspended in 250 μl FACS wash buffer. e. Stored tubes in a covered ice container for FACS analysis.

[2] = test system: CD4+ T cells; assay: Staining with peptide-loaded DR1001 tetramers (tetramer guided epitope mapping); format: cell-based, human; settings: for Positive (individual peptide loaded tetramer staining): DR1001 tetramers, severe HA inhibitor subject 56A, day 18
Description: as §1, §2, §3, §4
as §2, with “ul×55=206.25 ul (For the CD25-FITC Ab, I opened a new vial (Lot #E016414)—taking 100 ul from this lot.)” for “ul×50=187.5 ul.”
as §5

[3] = target: BO2C11 Fab fragment; assay: SPR, BO2C11 Fab on chip, 25 C, 1:1 model
[4] = target: BO2C11 Fab fragment; assay: SPR at 10-40 C, van't Hoff analysis
[5] = target: BO2C11 Fab fragment; assay: SPR kinetic runs at 25 C (kd/ka)
[6] = target: BO2C11 Fab fragment; assay: SPR at 10-40 C, van't Hoff analysis (KD° from ΔGA°)
[7] = test system: CD4+ T cells; assay: Staining with peptide-loaded DR1101 tetramers (tetramer guided epitope mapping); format: cell-based, human
[8] = target: HLA-DRB1*0101 (DR0101) (Homo sapiens, UniProt P01903+P01911, A100R/D57E/F55L/F60I/F76Y/I96L/L162R/M171V/P40L/Q125E/R42F/V115G/Y59C); assay: HLA-DR peptide binding competition assay, DR0101; settings: labels are Arg or Ala substitutions in synthetic peptide FVIII2194-2205

Molecule: LGMESKAISDAQITASSYFT [Mutant C2-2]
Positive (individual peptide loaded tetramer staining) [1]: no

Molecule: IFKYKWTVTVEDGPTKSDPR [Mutant A2-18]
Positive (individual peptide loaded tetramer staining) [2]: yes
tetramer staining ([2]; loaded on DR1001, subject 56A): Very strong staining
Positive (individual peptide loaded tetramer staining) [1]: yes
tetramer staining ([1]; loaded on DR0101, subject 56A): Very strong staining

Molecule: KFSSLYISQFIIMYSLDGKK [Mutant C1-14]
Positive (individual peptide loaded tetramer staining) [2]: no
Positive (individual peptide loaded tetramer staining) [1]: no

Kd [3]: 6.1 pM
koff [3]: 0.00017 s⁻¹
kon [3]: 2.8e+07 M⁻¹ s⁻¹
TΔSA° [4]: 14 kJ/mol
Δ(TΔSA°) (against WT-C2) [4]: -40 kJ/mol
ΔGA° [4]: -63 kJ/mol
ΔHA° [4]: -49 kJ/mol
ΔΔGA° (against WT-C2) [4]: 5 kJ/mol
ΔΔHA° (against WT-C2) [4]: -35 kJ/mol
Kd [5]: 6.1 pM
Kd [6]: 9.1 pM
Molecule: FVIII C2 domain protein L2252A (from UniProt P00451 2189-2351)

Molecule: CSCC[C@H](NC(=O)[C@H](Cc1ccccc1)NC(=O)[C@H](CCCNC(=N)N)NC(=O)[C@@H](NC(=O)[C@H](CCCCN)NC(=O)[C@H](CCCCN)NC(=O)[C@H](Cc1ccc(O)cc1)NC(=O)[C@H](CCCCN)NC(=O)[C@@H](N)CCCNC(=N)N)C(C)C)C(=O)N[C@@H](C)C(=O)N[C@@H](Cc1ccc(O)cc1)C(=O)N[C@H](C(=O)N[C@@H](CC(=O)O)C(=O)N[C@@H](CCC(=O)O)C(=O)N[C@H](C(=O)N[C@@H](Cc1ccccc1)C(=O)N[C@@H](CCCCN)C(=O)N[C@H](C(=O)N[C@@H](CCCNC(=N)N)C(=O)N[C@@H](CCC(=O)O)C(=O)O)[C@@H](C)O)[C@@H](C)O)[C@@H](C)O [FVIII421-440]
tetramer staining of peptide-stimulated CD4+ T cells ([7]; mild HA subject 41A): weaker positive staining; also recorded: tetramer-positive

Molecule: DLNSCSMPLGMESKAISDAQ [Mutant C2-1]
Positive (individual peptide loaded tetramer staining) [1]: no

Molecule: DPRCLTRYYSSFVNMERDLA [Mutant A2-20]
Positive (individual peptide loaded tetramer staining) [2]: no
Positive (individual peptide loaded tetramer staining) [1]: no

Molecule: FPILPGEIFKYKWTVTVEDG [Mutant A2-17]
Positive (individual peptide loaded tetramer staining) [2]: no
Positive (individual peptide loaded tetramer staining) [1]: no

Molecule: TWVHYIAAEEEDWDYAPLVL [FVIII381-400]
tetramer staining of peptide-stimulated CD4+ T cells ([7]; mild HA subject 41A): high peptide-specific background staining

Molecule: QFIIMYSLDGKKWQTYRGNS [Mutant C1-15]
Positive (individual peptide loaded tetramer staining) [2]: no
Positive (individual peptide loaded tetramer staining) [1]: no

Kd [3]: 9.8 pM
koff [3]: 4.3e-05 s⁻¹
kon [3]: 4.4e+06 M⁻¹ s⁻¹
TΔSA° [4]: 52 kJ/mol
Δ(TΔSA°) (against WT-C2) [4]: -2 kJ/mol
ΔGA° [4]: -64 kJ/mol
ΔHA° [4]: -12 kJ/mol
ΔΔGA° (against WT-C2) [4]: 4 kJ/mol
ΔΔHA° (against WT-C2) [4]: 2 kJ/mol
Kd [5]: 9.8 pM
Kd [6]: 6.1 pM
Molecule: FVIII C2 domain protein T2197A (from UniProt P00451 2189-2351)

Molecule: KVFQGNQDSFTPVVNSLDPP [Mutant C2-15]
Positive (individual peptide loaded tetramer staining) [2]: no

binding to DR0101 [8]: abolished or greatly reduced
Molecule: M2199R: synthetic peptide FVIII2194-2205 with M2199R substitution (SYFTNRFATWSP; UniProt P00451 2213-2224, looked up, variant M2199R) [Mutant M2199R]

Molecule: FSWIKVDLLAPMIIHGIKTQ [Mutant C1-11]
Positive (individual peptide loaded tetramer staining) [2]: no
Positive (individual peptide loaded tetramer staining) [1]: no

Kd [3]: 6.2 pM
koff [3]: 5e-05 s⁻¹
kon [3]: 8.1e+06 M⁻¹ s⁻¹
TΔSA° [4]: 35 kJ/mol
Δ(TΔSA°) (against WT-C2) [4]: -19 kJ/mol
ΔGA° [4]: -66 kJ/mol
ΔHA° [4]: -31 kJ/mol
ΔΔGA° (against WT-C2) [4]: 2 kJ/mol
ΔΔHA° (against WT-C2) [4]: -17 kJ/mol
Kd [5]: 6.2 pM
Kd [6]: 2.7 pM
Molecule: FVIII C2 domain protein L2251A (from UniProt P00451 2189-2351)

Molecule: CC[C@H](C)[C@H](NC(=O)CNC(=O)[C@H](CO)NC(=O)[C@H](CCC(=O)O)NC(=O)[C@H](Cc1c[nH]cn1)NC(=O)[C@H](CCC(N)=O)NC(=O)[C@@H](NC(=O)[C@H](C)NC(=O)[C@H](CCC(=O)O)NC(=O)[C@H](CCCNC(=N)N)NC(=O)[C@@H](NC(=O)[C@H](CCCCN)NC(=O)[C@H](Cc1ccccc1)NC(=O)[C@@H](NC(=O)[C@H](CCC(=O)O)NC(=O)[C@H](CC(=O)O)NC(=O)[C@@H](NC(=O)[C@H](Cc1ccc(O)cc1)NC(=O)[C@H](C)NC(=O)[C@@H](N)CCSC)[C@@H](C)O)[C@@H](C)O)[C@@H](C)O)[C@@H](C)CC)C(=O)O [FVIII429-448]
tetramer staining of peptide-stimulated CD4+ T cells ([7]; inhibitor subject 1D): Weaker positive staining; also recorded: tetramer-positive

Molecule: SDAQITASSYFTNMFATWSP [Mutant C2-3B]
Positive (individual peptide loaded tetramer staining) [1]: weak

Molecule: SLLTSMYVKEFLISSSQDGH [Mutant C2-11]
Positive (individual peptide loaded tetramer staining) [2]: no

Molecule: KGVKHLKDFPILPGEIFKYK [Mutant A2-16]
Positive (individual peptide loaded tetramer staining) [2]: no
Positive (individual peptide loaded tetramer staining) [1]: no

Molecule: VEDGPTKSDPRCLTRYYSSF [Mutant A2-19]
Positive (individual peptide loaded tetramer staining) [2]: no
Positive (individual peptide loaded tetramer staining) [1]: no

Molecule: CC[C@H](C)[C@H](NC(=O)CNC(=O)[C@H](Cc1c[nH]cn1)NC(=O)[C@@H]1CCCN1C(=O)[C@H](Cc1ccc(O)cc1)NC(=O)[C@@H](NC(=O)[C@H](CC(N)=O)NC(=O)[C@H](Cc1ccc(O)cc1)NC(=O)[C@@H]1CCCN1C(=O)[C@H](CCCNC(=N)N)NC(=O)[C@H](CO)NC(=O)[C@H](C)N)[C@@H](C)CC)C(=O)N[C@H](C(=O)N[C@@H](CC(=O)O)C(=O)N[C@H](C(=O)N[C@@H](CCCNC(=N)N)C(=O)N1CCC[C@H]1C(=O)N[C@@H](CC(C)C)C(=O)N[C@@H](Cc1ccc(O)cc1)C(=O)N[C@@H](CO)C(=O)O)C(C)C)[C@@H](C)O [FVIII469-488]
tetramer staining of peptide-stimulated CD4+ T cells ([7]; inhibitor subject 1D): Weaker positive staining; also recorded: tetramer-positive

Kd [3]: 22 pM
koff [3]: 9.4e-05 s⁻¹
kon [3]: 4.3e+06 M⁻¹ s⁻¹
TΔSA° [4]: 57 kJ/mol
Δ(TΔSA°) (against WT-C2) [4]: 3 kJ/mol
ΔGA° [4]: -60 kJ/mol
ΔHA° [4]: -3 kJ/mol
ΔΔGA° (against WT-C2) [4]: 8 kJ/mol
ΔΔHA° (against WT-C2) [4]: 11 kJ/mol
Kd [5]: 22 pM
Kd [6]: 30 pM
Molecule: FVIII C2 domain protein S2250A (from UniProt P00451 2189-2351)

Molecule: LFFQNGKVKVFQGNQDSFTP [Mutant C2-14]
Positive (individual peptide loaded tetramer staining) [2]: no

Molecule: LAPMIIHGIKTQGARQKFSS [Mutant C1-12]
Positive (individual peptide loaded tetramer staining) [2]: no
Positive (individual peptide loaded tetramer staining) [1]: no

binding to DR0101 [8]: abolished or greatly reduced
Molecule: A2201R: synthetic peptide FVIII2194-2205 with A2201R substitution (SYFTNMFRTWSP; UniProt P00451 2213-2224, looked up, fragment A2201R) [Mutant A2201R]

Molecule: KEFLISSSQDGHQWTLFFQN [Mutant C2-12]
Positive (individual peptide loaded tetramer staining) [2]: no

binding to DR0101 [8]: abolished or greatly reduced
Molecule: S2204R: synthetic peptide FVIII2194-2205 with S2204R substitution (SYFTNMFATWRP; UniProt P00451 2213-2224, looked up, fragment S2204R) [Mutant S2204R]

Molecule: IKTQGARQKFSSLYISQFII [Mutant C1-13]
Positive (individual peptide loaded tetramer staining) [2]: no
Positive (individual peptide loaded tetramer staining) [1]: no

Molecule: SQDGHQWTLFFQNGKVKVFQ [Mutant C2-13]
Positive (individual peptide loaded tetramer staining) [2]: no
